“And” between values parts separate entries of the source, which are not always exact repeats. Equal values may be shown once.
B1: ARH3: 39-kDa recombinant protein having both poly(ADP-ribose) glycohydrolase activity and O-acetyl-ADP-ribose hydrolase activity (protein, listed as Homo sapiens)
chain: MAAAAMAAAAGGGAGAARSLSRFRGCLAGALLGDCVGSFYEAHDTVDLTSVLRHVQSLEPDPGTPGSERTEALYYTDDTAMARALVQSLLAKEAFDEVDMAHRFAQEYKKDPDRGYGAGVVTVFKKLLNPKCRDVFEPARAQFNGKGSYGNGGAMRVAGISLAYSSVQDVQKFARLSAQLTHASSLGYNGAILQALAVHLALQGESSSEHFLKQLLGHMEDLEGDAQSVLDARELGMEERPYSSRLKKIGELLDQASVTREEVVSELGNGIAAFESVPTAIYCFLRCMEPDPEIPSAFNSLQRTLIYSISLGGDTDTIATMAGAIAGAYYGMDQVPESWQQSCEGYEETDILAQSLHRVFQKS
B2: human ARH3: human ARH3 amino acid sequence SEQ ID NO: 2, synthesized as GST-fusion product in E. coli (protein, listed as Homo sapiens)
chain: B1 chain
modifications: GST fusion

Experiments:
[1] = Hydrolysis of O-acetyl-[14C]ADP-ribose by ARH proteins / PARG (RP-HPLC); format: biochemical
Method: FIG. 13A is a graph illustrating the results from incubation of 1.5 pmol of mouse ARH3 with or without 5 mM DTT and/or 10 mM MgCl2 as described in FIG. 11B with incubation for 1 h at 30° C. FIG. 13B is a graph illustrating the results from incubation of 1.5 pmol of wild type or mutant human (D77-78) ARH3 or 20 mU of PARG for 2 h at 30° C. *D77,78, assays incubated with 15 pmol of mutant human ARH3 (D77, D78).
FIG. 14A is a graph of the results from incubation with the indicated amount of mouse ARH1, 2, or 3 for 2 h at 30° C. FIG. 14B is a graph of the results from incubation with 230 pmol of mouse ARH1 at 30° C. for the indicated time.
Mouse ARH3 (2 pmol) and 2.5 μM O-acetyl-[^14C]ADP-ribose (5,000 cpm) in 200 μl of buffer containing 50 mM potassium phosphate (pH 7.0), 10 mM MgCl2 and 5 mM DTT were incubated for 2 h at 30° C., before separation of substrate and products using RP-HPLC as described below.
Hydrolysis of O-acetyl-[^14C]ADP-ribose catalyzed by ARH3. Assays containing the indicated concentration of O-acetyl-[^14C]-ADP-ribose (0.1 to 2 nmol, 1,000 to 20,000 cpm) and 1.5 pmol of ARH3 in 200 μl of buffer (50 mM KPO4 (pH 7.0), 10 mM MgCl2, 5 mM DTT) were incubated at 30° C. for 20 min. Substrate and products were separated using RP-HPLC. Amounts of product were corrected for ADP-ribose produced in the absence of ARH3 before calculation of hydrolysis rates.
Because O-acetyl-ADP-ribose was known to be hydrolyzed at alkaline pH Tanny and Moazed (2001), Proc Natl Acad Sci USA. 98(2):415-20, Epub Dec. 26, 2000), it was generated at pH 7.0 in the presence of [^14C-adenine] β-NAD, Sir2, and acetylated histone H3 peptide (FIG. 11A), and the products of Sir2 and ARH3 were analyzed using reverse-phase HPLC at the same pH (FIGS. 11A,B). The products of the ARH3-catalyzed reaction were also analyzed by high resolution-polyacrylamide gel electrophoresis (FIG. 11C). O-acetyl-[^14C]ADP-ribose hydrolase activity was time and ARH3 dependent (FIG. 12) and essentially completely dependent on Mg^2+ (FIG. 13A).
O-acetyl-ADP-ribose hydrolysis by ARH1 was time and ARH1 dependent (FIG. 14b).

NIH3T3 cells = assay: Effect of H2O2 on ARH3-transfected NIH3T3 cells (Cell-Counting Kit-8); format: cell-based; details: stably ARH3 cDNA-transfected NIH3T3 cells vs empty vector; H2O2 for 24 hours
Method: FIG. 16 is a line graph showing the effect of H2O2 on ARH3-transfected NIH3T3 cells. NIH3T3 cells were transfected with ARH3 cDNA using Lipofectamin transfection reagent (INVITROGEN™). After transfection, the cells were cultured and exposed to 200 μg/ml of Hygromycin G (INVITROGEN™) for 3-4 weeks to select stably transfected clones. Positive clones derived from single Hygromycin G-resistant cells were then isolated by cloning rings and further grown under the same conditions. As controls, NIH3T3 cells were transfected with an empty pcDNA3.1 vector (INVITROGEN™) and subjected to the same selection and cloning procedures as described above. The cells were plated in 96-well plates at 1×10^4 cells/well, and incubated for 24 h at 37° C. in a humidified incubator. The cells were then challenged at the indicated concentrations of H2O2 for 24 hours. Cell survival was determined by using Cell-Counting Kit-8 (Dojindo). The experiments were repeated twice with similar results.
To test the role of ARH3 in the cellular response to oxidative stress, NIH3T3 cells were transfected with ARH3 cDNA using Lipofectamin transfection reagent (Invitrogen). […]
The cells were plated in 96-well plates at 1×10^4 cells/well, and incubated for 24 hours at 37° C. in a humidified incubator. […] Cell viability was determined by using Cell-Counting Kit-8 (Dojindo). […]

[2] = Poly(ADP-ribose) hydrolysis (autoradiography, high resolution PAGE, HPLC); format: biochemical
Method: Poly(ADP-ribose) hydrolysis by autoradiography. [^32P]poly(ADP-ribose)PARP (500 ng of PARP with poly(ADP-ribose) was incubated (37° C., 2 h) with 2 μM ARH in 25 μl of 50 mM potassium phosphate buffer, pH 7.5, with or without 10 mM MgCl2 and/or 5 mM DTT. Reactions were stopped by adding 6 μl of 5× Laemmli buffer. Samples (20 μl) of proteins were separated by SDS-PAGE in 4-20% gels and transferred to nitrocellulose membranes that were exposed to X-ray film (Kodak) for 10 h.
Hydrolysis of poly(ADP-ribose) by PARG and ARH3. Purified [^32P] poly(ADP-ribose) (5.5×10^5 cpm, ˜300 nM ADP-ribose) was incubated for the indicated time at 37° C. in 25 μl of 50 mM potassium phosphate, pH 7.5, containing 10 mM MgCl2 and 5 mM DTT with enzyme or other additions as indicated and terminated by addition of 25 μl of 2× electrophoresis buffer (Invitrogen). [^32P]AMP was generated by incubation (37° C., 3 h) of 10 μM [^32P] NAD (10 μCi/reaction) with pyrophosphatase (40 units/mg from SIGMA, 1 mg/ml) in 25 μl of 50 mM KPO4, pH 7.5, and 10 mM MgCl2. [^32P] ADP-ribose was generated in a 25 μl mixture containing 50 mM KPO4, pH 7.5, 25 μg of activated CTA, 10 μM [^32P] NAD (10 μCi/reaction), 10 mM MgCl2, and 5 mM DTT, which was incubated at 30° C. overnight. [^32P] phosphoribosyl-AMP was generated by incubation (37° C., 3 h) of [^32P]poly(ADP-ribose) (5.5×10^5 cpm, ˜300 nM ADP-ribose) with Crotalus adamanteus phosphodiesterase (10 mU/reaction), 25 μl of 50 mM KPO4, pH 7.5, 10 mM MgCl2, and 5 mM DTT. Identities of AMP and ADP-ribose standards were confirmed by HPLC on C18 and SAX columns respectively.
High resolution Polyacrylamide Gel Electrophoresis (PAGE). Polyacrylamide (20%) gels (20×20×0.15 cm) containing polyacrylamide and bis(acrylamide), in a ratio of 19:1, 100 mM Tris-borate, pH 8.3, 2 mM EDTA, 4.4 mM ammonium persulfate, and 3.4 mM TEMED with electrophoresis carried out for 2 h at 400V with 50 mM Tris-borate, pH 8.3, 1 mM EDTA, before application of samples (15 μl) were used for analysis of poly(ADP-ribose) degradation. Subsequent electrophoresis at 400V was stopped when bromophenol blue (BPB) had moved 9 cm from the origin. Gels were exposed to X-ray films (Kodak).
HPLC analysis. HPLC, Hewlett-Packard series 1100 equipped with a diode-array spectrophotometric detector set at 254 nm, was used for separation of reaction products. For anion exchange perfusion chromatography, Zorbax SAX column (4.6×250 mm; DuPont, Wilmington Del.) was washed with 20 mM potassium phosphate, pH 4.5, for 30 min, followed by a linear gradient of 0-1M NaCl in the same buffer for 10 min (30-40 min), then same buffer with 1M NaCl for 10 min (40-50 min) at a flow rate of 1 ml/min. Nicotinamide was eluted at 3 min, NAD at 10 min, and ADP-ribose at 40 min. For reverse phase, Discovery C18 column (4.6×250 mm; SUPELCO, Bellefonte Pa.) was used. Samples were separated isocratically with 100 mM potassium phosphate, pH 6.0 containing 7% methanol at a same flow rate of 1 ml/min. ADP-ribose was eluted at 6 min, NAD at 8 min, nicotinamide 9 min.
Poly(ADP-ribose)PARP was used as substrate to assay potential poly(ADP-ribose) hydrolase activities of recombinant ARH1, 2 or 3. Products were identified by autoradiography and HPLC. Fractions (1 ml) were collected for liquid scintillation counting to quantify [^14C]ADP-ribose, which was eluted in fractions from 34 min to 43 min. Because ARH1 activity may require both DTT and Mg^2+, depending on species (Takada et al. (1993) J. Biol. Chem. 268:17837-17843; Moss et al. (1992) J. Biol. Chem. 267:10481-10488), these reactions were performed with or without 10 mM MgCl2, and/or 5 mM DTT. […] Degradation of [^32P]poly(ADP-ribose) by ARH3 was enhanced by 10 mM MgCl2 (FIG. 4A). Data were similar with mouse ARH3.
Samples of [^14C] ADP-ribosylated PARP (250 ng, 15,000 cpm, ˜850 nM ADP-ribose) were incubated at 37° C. (total volume, 100 μl) with human ARH3 as indicated. […]

ADP-ribose binding assay = details: 1 μM ARH3, 3 μM [14C]ADP-ribose, 30° C., 16 h
Method: ADP-ribose binding assay. [^14C]ADP-ribose was generated by incubation overnight at 30° C. of 80 μM (10 μCi) [adenine-U-^14C]NAD with 50 μl of RT6.2 solution (5 nmol/h NADase activity; gift from Dr. Sunhee Park, NHLBI, National Institutes of Health, Bethesda, Md.) in 250 μl of 50 mM potassium phosphate, pH 7.5, and purified by HPLC using Zorbax Sax column as described above. [^14C]ADP-ribose, eluted at 40 min, was stored at −20° C.
To assess protein binding, 1 μM human wild type or D77N/D78N mutant ARH3 was incubated (30° C., 16 h) with 3 μM [^14C]ADP-ribose in 50 mM potassium phosphate buffer, pH 7.5, without or with 10 mM MgCl2, and/or 5 mM DTT (total volume 100 μl). A sample (90 μl) was applied to a column (0.5×4 cm) of Affi-Gel boronate (100 mg, Bio-Rad) which was equilibrated with 0.1 M glycine, pH 9.0, containing 0.1 M NaCl, with or without 10 mM MgCl2, and/or 5 mM DTT, and eluted with five 1-ml portions of the same solution. The total eluate, containing ARH with bound ADP-ribose was collected for liquid scintillation counting.
After incubation of wild-type or mutant ARH3 (1 μM) with [^14C]ADP-ribose (3 μM) (30° C., 16 h) without or with 10 mM MgCl2 and/or 5 mM DTT (total volume 100 μl), unbound ADP-ribose was removed by binding to Affi-gel boronate (Bio-Rad), and ARH3 with ADP-ribose bound, was collected for radioassay. […]

Molecule	Km ([1]; 1.5 pmol ARH3, 30° C., 20 min, pH 7.0, 10 mM MgCl2, 5 mM DTT) [µM]	Vmax, O-acetyl-ADP-ribose hydrolysis ([1]; 1.5 pmol ARH3, 30° C., 20 min, pH 7.0, 10 mM MgCl2, 5 mM DTT, means ±½ range of duplicates) [nmol/min/mg]	kcat, O-acetyl-ADP-ribose hydrolysis ([1]; comparison with mNudT5) [s⁻¹]	Rate of O-acetyl-ADP-ribose hydrolysis relative to that of ARH1 ([1]; times / -fold the rate with ARH1, recombinant mouse proteins, 2 h at 30° C.)	Cell viability after H2O2 challenge (NIH3T3 cells)	Substrate remaining, [14C]poly(ADP-ribose)PARP ([2]; 40 nM hydrolase, 60 min, 37° C.) [%]	Release of [14C]ADP-ribose from [14C]poly(ADP-ribose)PARP relative to wild-type ARH3 ([2]; 50 nM human ARH3 (wild-type or mutant), ~2 μM ADP-ribose, HPLC C18) [%]	Poly(ADP-ribose) hydrolysis (in words) ([2]; [32P]poly(ADP-ribose) or poly(ADP-ribose)PARP, 37° C., autoradiography / PAGE / HPLC)	[14C]ADP-ribose binding (ADP-ribose binding assay)
B1	7.4 ± 0.7	173 ± 8.4	0.0052 ± 0.0033	250 and > 250	significantly reduced the toxic effect of H2O2	–	–	–	–
B2	–	–	–	–	–	~75	100	hydrolyzed	similar
